{"source": "the DeepSol protein solubility set", "data": [{"experiment": "soluble on expression in E. coli; label from the status in PepcDB or PDB records", "values": [{"sequence": "MQNHVISLASAAERRAHIAATFGARGIPFQFFDALMPSERLEQAMAELVPGLSAHPYLSGVEKACFMSHAVLWKQALDEGLPYIAVFEDDVLLGEGAEKFLAEDAWLKERFDPDSAFIVRLETMFMHVLTSPSGVADYCGRAFPLLESEHWGTAGYIISKKAIRFFLQHFVMLQPEQIKPIDLMMFSDFFDKEGMPVYQVSPALCAQELHYAKFHDQNSALGSLIEHDRLLNRKQQRRDSPANTFKRRLIRALTKISLEHHHHHH", "soluble on expression in E. coli": "soluble"}, {"sequence": "MGNAKSTDSNPKKSVRRKSATTPSTSSSSRPSISSQGNRKPILSVNQRQIIKGCMDNSKDDLGERIFRRALERRDDFKQFIDNLSKGQRYENSQYLKQFLLGIVENIMDIDEINRISEEFGCNHVQFRANGFKPDFFACTADAVTTECTFLDQAAHPTSETAAAWSLLTSHVFSAVRDGYYAELRRQRKSSNAFRARVSVDVVSTGTDDGTSLSSATRRSNSPQEEIAESFDHHTVENNCVESSGNFLAPPTVY", "soluble on expression in E. coli": "not soluble"}, {"sequence": "MQAYFDQLDRVRYEGPQSTNPLAFRHYNPDELVLGKRMEDHLRFAACYWHTFCWNGADMFGVGAFNRPWQQPGEALELAKRKADVAFEFFHKLNVPFYCFHDVDVSPEGASLKEYKNNFAQMVDVLAAKQEQSGVKLLWGTANCFTNPRYGAGAATNPDPEVFSWAATQVVTAMNATHKLGGENYVLWGGREGYETLLNTDLRQEREQIGRFMQMVVEHKHKMGFQGTLLIEPKPQEPTKHQYDYDVATVYGFLKQFGLEKEIKVNIEANHATLAGHSFHHEIATAIALGIFGSVDANRGDAQLGWDTDQFPISVEENALVMYEILKAGGFTTGGLNFDAKVRRQSTDKYDLFYGHIGAMDTMALSLKIAARMVEDGELDKRVAKRYAGWNGELGQQILKGQLSLGELAQYAEQHNLAPVHQSGHQELLENLVNRYLFDK", "soluble on expression in E. coli": "not soluble"}, {"sequence": "GMHTDVNALFAALWQDYIKMTPSAAKIHQLLGHGAPIINDHIALRTFNIAKVNLSVLAKHFTSIGYVDSGDYKFEQKKLIAKHFEHPDPKQPKVFISELLVEEFSPEVQKSIHGLIDQVDIAATTADNFIYSGRHWDVDKATYQALLAESEYAAWVAALGYRANHFTVSINDLPEFERIEDVNQALKQAGFVLNSSGGEVKGSPEVLLEQSSTMADKVVVNFTDGDVEIPSCFYEFARRYPMANGQLYTGFVAASADKIFESTNAMM", "soluble on expression in E. coli": "soluble"}, {"sequence": "SVFYFTSSSVNSSAYTIYMGKDKYENEDLIKHGWPEDIWFHVDKLSSAHVYLRLHKGENIEDIPKEVLMDCAHLVKANSIQGCKMNNVNVVYTPWSNLKKTADMDVGQIGFHRQKDVKIVTVEKKVNEILNRLEKTKVERFPDLAAEKECRDREERNEKKAQIQEMKKREKEEMKKKREMDELRSYSSLMKVENMSSNQDGNDSDEFM", "soluble on expression in E. coli": "soluble"}, {"sequence": "LRSSSQNSSDKPVAHVVANHQVEEQLEWLSQRANALLANGMDLKDNQLVVPADGLYLVYSQVLFKGQGCPDYVLLTHTVSRFAISYQEKVNLLSAVKSPCPKDTPEGAELKPWYEPIYLGGVFQLEKGDQLSAEVNLPKYLDFAESGQVYFGVIAL", "soluble on expression in E. coli": "soluble"}, {"sequence": "MSLSDRVKKIESFTLTLPRETPYLGKPRPGEEPNGRGYLVRKANRTVYPTFDRSVLVRIETENGAVGWGETYGLVAPRATMEIIDDLLADFTIGRDPFDAAAIHDDLYDLMRVRGYTGGFYVDALAAIDIALWDLAGKLAGLPVCKLLGGQRRDRIAAYISGLPEDTRAKRAELAAAWQAKGFSSFKFASPVADDGVAKEMEILRERLGPAVRIACDMHWAHTASEAVALIKAMEPHGLWFAEAPVRTEDIDGLARVAASVSTAIAVGEEWRTVHDMVPRVARRALAIVQPEMGHKGITQFMRIGAYAHVHHIKVIPHATIGAGIFLAASLQASAALANVDCHEFQHSIFEPNRRLLVGDMDCLNGEYVVPTGPGLGVEPSKEAQGLLKKHEGHHHHHH", "soluble on expression in E. coli": "soluble"}]}]}
